Results as given in the nanobody polyreactivity screen of Harvey et al. (2022).

Experiment: yeast display, Sf9 membrane polyspecificity reagent, FACS + sequencing; frameworks hold sequencing errors
How it was run: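 After 36–48 hours of galactose induction, yeast (Saccharomyces cerevisiae BJ5465) displaying a synthetic nanobody library were stained at 4 °C for 1 hour with 10% biotinylated, detergent-solubilized Sf9 membrane reagent. Streptavidin microbeads enriched the stained cells before FACS sorting into low and high (top ~1%) gates on anti-HA and streptavidin fluorescence. Each clone's polyreactivity label reflects its gate of origin.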

Sequence | polyreactivity (PSR sort gate)
QVQLVESGGGLVQAGGSLRLSCAASGTTFDVYAMGWYRQAPGKERELVAAISTRGTRTYYADSVKGRFTISRDNAKNTVYLQMNSLKPEETAVYYCAAYVYDGETVSRFDYWGQGTQVTVSS | high polyreactivity
QVQLVESGGGLVQAGGSLRLSCAASGTTFFINDLGWYRQAPGKERELVAAISWSGDSTYYPDSVKGRFTISRDNAKNTVYLQMKSLKPEDTAVYYCAADWGFVQPGWSYNYWGQGTQVTVSS | high polyreactivity
QVQLVESGGGLVQAGGSLRLSCAASGTTFFNNAMGWYRQAPGKERELVAAITSGRTYYADSVKGRFTISRDNAKNTVYLLMNSLKPEDTAVDYCAKDADQDADKPFQFTMDYWGQGTEVTVSS | low polyreactivity
QVQLVESGGGLVQAGGSLRLSCAASGTTFILNAMGWYRQAPGKDRELVATISSSDTSTYYADSVKGRFTISRDNAKNTVYLQMNSLKPEDTAVYYCNADYYTTSYLQRVFHYGVEYDYWGQGTQVTVSS | low polyreactivity
QVQLVESGGGLVQAGGSLRLSCAASGTTFNAYAMGWYRQAPGKDRELVAAISTSGGRTYYADSVKGRYTISRDNAKNTVYLQMNSLKPEDTAVNYCAAVLGRSPGLNYWGQGTQVTVSS | high polyreactivity
QVQLVESGGGLVQAGGSLRLSCAASGTTFYHNVMGWYRQAPGKERELVASIDTGDSTNYADSVKGRFTISRDNAKNTVYLQMNSLKPEDTAVYYCNADSYPALNKRGYDYWGQGTQVTVSS | low polyreactivity
QVQLVESGGGLVQAGGSLRLSCAASGTTFYKYSMGWYRQAPGKERELVAAITSRGDRTYYADSVKGRFTISRDNANNTVYLQMNSLKPEDTAVYYCAATRWRDAGHSYDYWGQGTQVTVSS | high polyreactivity
QVQLVESGGGLVQAGGSLRLSCAASGTTFYPNAMGWYRQAPGKERELVAAISWSGGRTYYADSVKGRFTISRDNAKNTVYLQMNSLKPEDTAVYYCNRYHRTSWRAKYDYWGQGTQVTVSS | high polyreactivity
QVQLVESGGGLVQAGGSLRLSCAASGTTLVIYAMGWYRQAPGKERELVAAINFSDGSTSYADSVKGRFTKSRDNAKNTVYLQMISLKPEDTAVYYWGQGTQVTVSS | low polyreactivity
QVQLVESGGGLVQAGGSLRLSCAASGTYFGYAMGWYRQAPGKETELVAAITSGGSTYYADSVKGRFTISRDNAKNTVYLQMNSLKPEDTADYYCARVYSRWSYRYDYWGQGSQVTVSS | low polyreactivity
QVQLVESGGGLVQAGGSLRLSCAASGTYTNAMGWYRQAPGKERELVAAISSTVGRTYYADSVKGRFTISRDNAKNPVYLQMNSLKPEDTAVYYCATTHGRTYYYWGQGTLVTVSS | high polyreactivity
QVQLVESGGGLVQAGGSLRLSCAASGVIFDFNAMGWYRQAPGKERELAASISRSGGSTYYADSVKGRFTISRDNAKNTVYLQMNSLKPEDTAVYYCAKASKGQYRFDYWGQGTQVTVSS | low polyreactivity
QVQLVESGGGLVQAGGSLRLSCAASGVTFVDYAMGWYRQAPGKERELVAAITVSGDSTYYADSVKGRFTLSRDNAKNTVYLQMNSLKPEDTAVYYCAADPGYYDGGYWGQGTQVTVSS | low polyreactivity
QVQLVESGGGLVQAGGSLRLSCAASGVYAMGWYRQAPGQERELVAAITSVGSTNYADSVKGRFTISRDNAKNTVYLQMNSLKPEDTAVYYCNTDRDTDELDYWGQGTQVTVSS | low polyreactivity
QVQLVESGGGLVQAGGSLRLSCAASGYFDLNAMGWYRQAPGKERELVAAITDGGSTNYADSVKGRFTISRDNAKNTVYLQMNSLKPEDTAVYYCAADRGHTILHGGHWGQGTQVTVSS | low polyreactivity
QVQLVESGGGLVQAGGSLRLSCAASGYIFAAYTMGWYRQAPGKEREFVAAITRSGGSTYYADSVKWRFTISRDNAKNTVYLQMNSLKPEDTAVYYCAARRWRYFPDYDYWGQGTQVTVSS | high polyreactivity
QVQLVESGGGLVQAGGSLRLSCAASGYIFAINAMGWYRQAPGKERELVAAIRSGGRTYYADSVKGRFTISRDKAKNTVYLQMNSLKPEDTAVYYCNAGGKWIGSDYWGQGTQVTVSS | high polyreactivity
QVQLVESGGGLVQAGGSLRLSCAASGYIFAIYAMGCYRQAPGKERELVAAISTSGGSTYYADSVKGRFTISRDNAKNTVYLQMNSLKPDDTAVYYCARPTTYGYYYWGQGTQVTVSS | high polyreactivity
QVQLVESGGGLVQAGGSLRLSCAASGYIFDDYAMGWYRQAPGKERELVAAISRGGSTYYADSVKGRFTISRDNSKNTVYLQMNSLKPEDTEVYYCAAVYRVRRITYVYWGQGTQVTVSS | high polyreactivity
QVQLVESGGGLVQAGGSLRLSCAASGYIFDKNAMGWYRQAPGKERELVAAITSSGGRTYYADSVKGRFTISRDNAKNTVYLQMNSLKPEDTAVYYCNKLYRTSGEYVYWGQGTQVTVSS | high polyreactivity
QVQLVESGGGLVQAGGSLRLSCAASGYIFDPNAMGWYRQAPGKERELVAAISGSGTSTYYADSVKGRFTISRDNAKNTVYLQMNSLKPEDTAVYYCAAAHDAGPVRYYYWGHGTQVTVSS | low polyreactivity

Sequence | polyreactivity (PSR sort gate)
QVQLVESGGGLVQAGGSLRLSCAASGYIFGHYTMGWYRPAPGKEGELVAGITRGTRTYYADSVKGRFTISRDNAKNTVYLQMNSLKPEDTAVYYCAKRGPVRTQYTYYYWGQGTQVTVSS | high polyreactivity
QVQLVESGGGLVQAGGSLRLSCAASGYIFGPYAMGWYRQAPGKERELVAAITWRGGRTYADSVKGRFTISRDNAKNTVYLQMNSLKPEDTAVYFCATETGYSPFVYYSGRYGYWGQGTQVNVSS | high polyreactivity
QVQLVESGGGLVQAGGSLRLSCAASGYIFGQNAMGWYRPAPRKERELVASISDGGSTYYADSVKGRFTISRDNAKNTVYLQMNSLKPEDTAVYYCAAGQYWGEKALGAWLFDYWGQGTQLTVSS | low polyreactivity
QVQLVESGGGLVQAGGSLRLSCAASGYIFGQNARGLYRQAPGKERELGASMSDGGSTYYADSVKGRFTISRDNAKNTVYLQLNSLKPEDTAVYYCAAYYSYGSTSHTYTCFDYWGQGTQVTVSS | low polyreactivity
QVQLVESGGGLVQAGGSLRLSCAASGYIFGQYAMGWYRQAPGKERELVADITRGGDTYYADSVKGRFTISRDNAKNTVYLQMNSLKPEDTAVYYCAAEQGRTSYRYYYWGQGTQVTVSS | high polyreactivity
QVQLVESGGGLVQAGGSLRLSCAASGYIFGRNAMGWYRQAPGKEREFVAAISYSGSSTYYADSVKGRFTISRDNAKNTVYLQMNSLKPEDTAVYYCNAVYYRSRFGTSIRYDYWGQGTQVTVSS | high polyreactivity
QVQLVESGGGLVQAGGSLRLSCAASGYIFGYNAMGWYRPAPGKERELVATITWRGGSTYYADSVKGRFTISRDNAKNTVYLQMNSLKPEDTAVYYCAAVRWVRYRTSAYEYWGQGTQVTVSS | high polyreactivity
QVQLVESGGGLVQAGGSLRLSCAASGYIFGYYTMGWYRQAPGKERELVATIRSGGSTYYADSVKGRFTISRDNAKNTVYLQMNSLKPEDTAVYYWAKRVRRISEYGYWGQGTQVTVSS | high polyreactivity
QVQLVESGGGLVQAGGSLRLSCAASGYIFGYYVMGWYRQAPGKERELVAAISGRGGRTYYADSVKGRFTISRDNAKNTVYLQMNSLKPEDTAVYYCAAADLPGTMYYWGQGTQVTVSS | high polyreactivity
QVQLVESGGGLVQAGGSLRLSCAASGYIFHRYVMGWYRQAPGKERELVASISWSGGSTYYADSVKGRFTISRDNAKNTVYLQMTSLKPEDTAVYYCGALSPYRRGYYWGQGTQVTVSS | high polyreactivity
QVQLVESGGGLVQAGGSLRLSCAASGYIFKFYTMGWYRQAPGKERELVAAISRSGGSTYYADSVKGRFTISRDNAKNTVYLQLNSLKPEDTAVYYCARPRTRQGDYWGQGSQVTVSS | high polyreactivity
QVQLVESGGGLVQAGGSLRLSCAASGYIFKKYAMGWYRQAPGKEREFVAAISISGGRTYYADSVKGRFTISRDNAKNTVYLQMNSLKPEDTAVYYCNKVHYGRRHSYSGAIYGEDYWGQGTQVTVSS | high polyreactivity
QVQLVESGGGLVQAGGSLRLSCAASGYIFKSNVMGWYRQAPGKERELVAAITTDGSTYYADSVKGRFTISRDNAKNTVYLQMNSLKPEDTAVYYCAAGKAYWYARKPYARYYYWGQGTQVTVSS | high polyreactivity
QVQLVESGGGLVQAGGSLRLSCAASGYIFLRNAMGWYRQAPGKERELVAAIRRTGGSTYADSVKGRFTISRDNAKNTVYLQMNSLKPEDTAVYYCNAGYLLYYDYHLFYWVQGTQVTVSS | low polyreactivity
QVQLVESGGGLVQAGGSLRLSCAASGYIFLTNAMGWYRQAPGKERELVAAISVSGGRTYYADSVKGRFTISRDNAKNTVYLQMNSLKPEDTAVYYCNTLLTYGYDYWGQGTQVTVSS | low polyreactivity
QVQLVESGGGLVQAGGSLRLSCAASGYIFLYSTMGWYRQAPGKERELVAAITIGGGTYYADSVKGRFTISRDNAKNTVYLQMNSLKPEDTAVYYCNADYASYYRYSRPLEMNYWGQGTQVTVSS | low polyreactivity
QVQLVESGGGLVQAGGSLRLSCAASGYIFNKYVMGWYRQAPGKERELVAAISASGGSTYYADSVKGRFTISRDNAKNTVYLQMNSLKPEDTAVYYCAATLYRRMDYWGQGTEVTVSS | high polyreactivity
QVQLVESGGGLVQAGGSLRLSCAASGYIFPKNAIGWYRQAPWKERELVAAITGSGGSTYYADSVKGRFTISRDNAKNTVYLQMNSLKPEDTAVYYCAKRSWIEYDYWGQGTQVTVSS | low polyreactivity
QVQLVESGGGLVQAGGSLRLSCAASGYIFPSNTMGWSIQAPGKERELVATISRSGVSTYYADSVKGRFTISRDYAKNTVYLHMYSLKPDDTAVYYCAASTVYYYRSKWLSSFDYWGQGTQVTVSS | low polyreactivity
QVQLVESGGGLVQAGGSLRLSCAASGYIFRFNAMGWYRQAPGKERELVAVITSGARTYYADSVKGRFTISRDNAKNTVYLQMNSLKPEDTAVYYCNAGARRYLYDYWGQGTQVTVSS | low polyreactivity
